Laboratory results from US20260242735A1.

Assays:
human CD33 I47R (human) = human CD33 I47R (human) (UniProt P20138); experiment: flow cytometry on transfected cells, IgG
human CD33 P46R (human) = human CD33 P46R (human) (UniProt P20138); experiment: flow cytometry on transfected cells, IgG
human CD33 I47P (human) = human CD33 I47P (human) (UniProt P20138); experiment: flow cytometry on transfected cells, IgG
human CD33 Y50S (human) = human CD33 Y50S (human) (UniProt P20138); experiment: flow cytometry on transfected cells, IgG
human CD33 Y50V (human) = human CD33 Y50V (human) (UniProt P20138); experiment: flow cytometry on transfected cells, IgG
human CD33 Y49H (human) = human CD33 Y49H (human) (UniProt P20138); experiment: flow cytometry on transfected cells, IgG
human CD33 Y49C (human) = human CD33 Y49C (human) (UniProt P20138); experiment: flow cytometry on transfected cells, IgG
human CD33 F44S (human) = human CD33 F44S (human) (UniProt P20138); experiment: flow cytometry on transfected cells, IgG
human CD33 Y50Q (human) = human CD33 Y50Q (human) (UniProt P20138); experiment: flow cytometry on transfected cells, IgG
human CD33 P48D (human) = human CD33 P48D (human) (UniProt P20138); experiment: flow cytometry on transfected cells, IgG
human CD33 P48T (human) = human CD33 P48T (human) (UniProt P20138); experiment: flow cytometry on transfected cells, IgG
human CD33 F44D (human) = human CD33 F44D (human) (UniProt P20138); experiment: flow cytometry on transfected cells, IgG
human CD33 F44E (human) = human CD33 F44E (human) (UniProt P20138); experiment: flow cytometry on transfected cells, IgG
human CD33 P46L (human) = human CD33 P46L (human) (UniProt P20138); experiment: flow cytometry on transfected cells, IgG
human CD33 Y49R (human) = human CD33 Y49R (human) (UniProt P20138); experiment: flow cytometry on transfected cells, IgG
human CD33 Y50G (human) = human CD33 Y50G (human) (UniProt P20138); experiment: flow cytometry on transfected cells, IgG
human CD33 P46F (human) = human CD33 P46F (human) (UniProt P20138); experiment: flow cytometry on transfected cells, IgG
human CD33 F44P (human) = human CD33 F44P (human) (UniProt P20138); experiment: flow cytometry on transfected cells, IgG
human CD33 Y49P (human) = human CD33 Y49P (human) (UniProt P20138); experiment: flow cytometry on transfected cells, IgG
human CD33 P48F (human) = human CD33 P48F (human) (UniProt P20138); experiment: flow cytometry on transfected cells, IgG
human CD33 P48Q (human) = human CD33 P48Q (human) (UniProt P20138); experiment: flow cytometry on transfected cells, IgG
human CD33 P48V (human) = human CD33 P48V (human) (UniProt P20138); experiment: flow cytometry on transfected cells, IgG
human CD33 H45Y (human) = human CD33 H45Y (human) (UniProt P20138); experiment: flow cytometry on transfected cells, IgG
human CD33 Y50N (human) = human CD33 Y50N (human) (UniProt P20138); experiment: flow cytometry on transfected cells, IgG
human CD33 I47W (human) = human CD33 I47W (human) (UniProt P20138); experiment: flow cytometry on transfected cells, IgG
human CD33 P48M (human) = human CD33 P48M (human) (UniProt P20138); experiment: flow cytometry on transfected cells, IgG
human CD33 T42N (human) = human CD33 T42N (human) (UniProt P20138); experiment: flow cytometry on transfected cells, IgG
human CD33 F43L (human) = human CD33 F43L (human) (UniProt P20138); experiment: flow cytometry on transfected cells, IgG
human CD33 F44L (human) = human CD33 F44L (human) (UniProt P20138); experiment: flow cytometry on transfected cells, IgG
human CD33 G241A (human) = human CD33 G241A (human) (UniProt P20138); experiment: alanine scan, flow cytometry
human CD33 T232A (human) = human CD33 T232A (human) (UniProt P20138); experiment: alanine scan, flow cytometry
human CD33 D246A (human) = human CD33 D246A (human) (UniProt P20138); experiment: alanine scan, flow cytometry
human CD33 T208A (human) = human CD33 T208A (human) (UniProt P20138); experiment: alanine scan, flow cytometry
human CD33 V267A (human) = human CD33 V267A (human) (UniProt P20138); experiment: alanine scan, flow cytometry
human CD33 V258A (human) = human CD33 V258A (human) (UniProt P20138); experiment: alanine scan, flow cytometry
human CD33 E224A (human) = human CD33 E224A (human) (UniProt P20138); experiment: alanine scan, flow cytometry
human CD33 Q213A (human) = human CD33 Q213A (human) (UniProt P20138); experiment: alanine scan, flow cytometry
human CD33 T240A (human) = human CD33 T240A (human) (UniProt P20138); experiment: alanine scan, flow cytometry
human CD33 N230A (human) = human CD33 N230A (human) (UniProt P20138); experiment: alanine scan, flow cytometry
human CD33 V257A (human) = human CD33 V257A (human) (UniProt P20138); experiment: alanine scan, flow cytometry
human CD33 P244A (human) = human CD33 P244A (human) (UniProt P20138); experiment: alanine scan, flow cytometry
human CD33 R225A (human) = human CD33 R225A (human) (UniProt P20138); experiment: alanine scan, flow cytometry
human CD33 T253A (human) = human CD33 T253A (human) (UniProt P20138); experiment: alanine scan, flow cytometry
human CD33 P201A (human) = human CD33 P201A (human) (UniProt P20138); experiment: alanine scan, flow cytometry
human CD33 R254A (human) = human CD33 R254A (human) (UniProt P20138); experiment: alanine scan, flow cytometry
human CD33 V231A (human) = human CD33 V231A (human) (UniProt P20138); experiment: alanine scan, flow cytometry
human CD33 G249A (human) = human CD33 G249A (human) (UniProt P20138); experiment: alanine scan, flow cytometry
human CD33 G245A (human) = human CD33 G245A (human) (UniProt P20138); experiment: alanine scan, flow cytometry
human CD33 G218A (human) = human CD33 G218A (human) (UniProt P20138); experiment: alanine scan, flow cytometry

human CD33 P48M (human), sequence (P20138 18-364 P48M limits assumed): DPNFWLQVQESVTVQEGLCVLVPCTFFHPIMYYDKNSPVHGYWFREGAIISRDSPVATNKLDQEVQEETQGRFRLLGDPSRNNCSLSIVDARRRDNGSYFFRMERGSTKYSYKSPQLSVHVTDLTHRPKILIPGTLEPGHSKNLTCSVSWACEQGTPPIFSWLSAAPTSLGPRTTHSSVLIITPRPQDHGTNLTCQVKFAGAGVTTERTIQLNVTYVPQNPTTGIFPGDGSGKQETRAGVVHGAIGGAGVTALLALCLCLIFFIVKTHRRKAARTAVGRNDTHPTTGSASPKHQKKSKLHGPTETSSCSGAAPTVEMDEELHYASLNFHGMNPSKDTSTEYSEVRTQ
human CD33 V258A (human), sequence (P20138 18-364 V258A limits assumed): as the sequence (P20138 18-364 P48M limits assumed) above, with M31P, V241A counted along it
human CD33 Y49C (human), sequence (P20138 18-364 Y49C limits assumed): as the sequence (P20138 18-364 P48M limits assumed) above, with M31P, Y32C counted along it
human CD33 D246A (human), sequence (P20138 18-364 D246A limits assumed): as the sequence (P20138 18-364 P48M limits assumed) above, with M31P, D229A counted along it
human CD33 P48T (human), sequence (P20138 18-364 P48T limits assumed): as the sequence (P20138 18-364 P48M limits assumed) above, with M31T counted along it
human CD33 P48V (human), sequence (P20138 18-364 P48V limits assumed): as the sequence (P20138 18-364 P48M limits assumed) above, with M31V counted along it
human CD33 I47W (human), sequence (P20138 18-364 I47W limits assumed): as the sequence (P20138 18-364 P48M limits assumed) above, with I30W, M31P counted along it
human CD33 F44P (human), sequence (P20138 18-364 F44P limits assumed): as the sequence (P20138 18-364 P48M limits assumed) above, with F27P, M31P counted along it
human CD33 R225A (human), sequence (P20138 18-364 R225A limits assumed): as the sequence (P20138 18-364 P48M limits assumed) above, with M31P, R208A counted along it
human CD33 F44D (human), sequence (P20138 18-364 F44D limits assumed): as the sequence (P20138 18-364 P48M limits assumed) above, with F27D, M31P counted along it
human CD33 I47R (human), sequence (P20138 18-364 I47R limits assumed): as the sequence (P20138 18-364 P48M limits assumed) above, with I30R, M31P counted along it
human CD33 Y49H (human), sequence (P20138 18-364 Y49H limits assumed): as the sequence (P20138 18-364 P48M limits assumed) above, with M31P, Y32H counted along it
human CD33 F44L (human), sequence (P20138 18-364 F44L limits assumed): as the sequence (P20138 18-364 P48M limits assumed) above, with F27L, M31P counted along it
human CD33 V257A (human), sequence (P20138 18-364 V257A limits assumed): as the sequence (P20138 18-364 P48M limits assumed) above, with M31P, V240A counted along it

Refmab #7 (WM53) (antibody)
Mean % WT Binding (human CD33 I47R (human)): 2 % WT binding
Mean % WT Binding (human CD33 P46R (human)): 33.4 % WT binding
Mean % WT Binding (human CD33 I47P (human)): 1.2 % WT binding
Mean % WT Binding (human CD33 Y50S (human)): 7.7 % WT binding
Mean % WT Binding (human CD33 Y50V (human)): 3.9 % WT binding
Mean % WT Binding (human CD33 Y49H (human)): 27.8 % WT binding
Mean % WT Binding (human CD33 Y49C (human)): 0.6 % WT binding
Mean % WT Binding (human CD33 F44S (human)): 31.8 % WT binding
Mean % WT Binding (human CD33 Y50Q (human)): 7.2 % WT binding
Mean % WT Binding (human CD33 P48D (human)): 0.1 % WT binding
Mean % WT Binding (human CD33 P48T (human)): 1.6 % WT binding
Mean % WT Binding (human CD33 F44D (human)): 9.5 % WT binding
Mean % WT Binding (human CD33 F44E (human)): 18.3 % WT binding
Mean % WT Binding (human CD33 P46L (human)): 66.8 % WT binding
Mean % WT Binding (human CD33 Y49R (human)): 1.6 % WT binding
Mean % WT Binding (human CD33 Y50G (human)): 17.2 % WT binding
Mean % WT Binding (human CD33 P46F (human)): 23 % WT binding
Mean % WT Binding (human CD33 F44P (human)): 21.8 % WT binding
Mean % WT Binding (human CD33 Y49P (human)): 11.7 % WT binding
Mean % WT Binding (human CD33 P48F (human)): 0.2 % WT binding
Mean % WT Binding (human CD33 P48Q (human)): 1.3 % WT binding
Mean % WT Binding (human CD33 P48V (human)): 0.9 % WT binding
Mean % WT Binding (human CD33 H45Y (human)): 75.7 % WT binding
Mean % WT Binding (human CD33 Y50N (human)): 4.7 % WT binding
Mean % WT Binding (human CD33 I47W (human)): 45.4 % WT binding
Mean % WT Binding (human CD33 P48M (human)): 3.2 % WT binding
Mean % WT Binding (human CD33 T42N (human)): 95.4 % WT binding
Mean % WT Binding (human CD33 F43L (human)): 94 % WT binding
Mean % WT Binding (human CD33 F44L (human)): 99.6 % WT binding
Mean % WT Binding (human CD33 G241A (human)): 131 % WT binding
Mean % WT Binding (human CD33 T232A (human)): 95.3 % WT binding
Mean % WT Binding (human CD33 D246A (human)): 99.5 % WT binding
Mean % WT Binding (human CD33 T208A (human)): 102 % WT binding
Mean % WT Binding (human CD33 V267A (human)): 92.6 % WT binding
Mean % WT Binding (human CD33 V258A (human)): 98.8 % WT binding
Mean % WT Binding (human CD33 E224A (human)): 126 % WT binding
Mean % WT Binding (human CD33 Q213A (human)): 103 % WT binding
Mean % WT Binding (human CD33 T240A (human)): 121 % WT binding
Mean % WT Binding (human CD33 N230A (human)): 100 % WT binding
Mean % WT Binding (human CD33 V257A (human)): 124 % WT binding
Mean % WT Binding (human CD33 P244A (human)): 99 % WT binding
Mean % WT Binding (human CD33 R225A (human)): 99.8 % WT binding
Mean % WT Binding (human CD33 T253A (human)): 112 % WT binding
Mean % WT Binding (human CD33 P201A (human)): 110 % WT binding
Mean % WT Binding (human CD33 R254A (human)): 126 % WT binding
Mean % WT Binding (human CD33 V231A (human)): 112 % WT binding
Mean % WT Binding (human CD33 G249A (human)): 114 % WT binding
Mean % WT Binding (human CD33 G245A (human)): 122 % WT binding
Mean % WT Binding (human CD33 G218A (human)): 123 % WT binding
